Earlier results in PMC3158961.
Like-named read-outs stand apart in the source and are kept apart here. Values belong to the substance of their own block, whether it stands above or below them.

Key:
CEP55 (Homo sapiens) [1] = biological target: CEP55 (Homo sapiens) (UniProt Q53EZ4)
Nedd4 WW3 = Nedd4 WW3 (UniProt P46934)
CEP55 (Homo sapiens) [2] = biological target: CEP55 (Homo sapiens) (UniProt Q53EZ4); remark: listed apart in the source

Chain of UniProt Q53EZ4 (Q53EZ4 whole entry): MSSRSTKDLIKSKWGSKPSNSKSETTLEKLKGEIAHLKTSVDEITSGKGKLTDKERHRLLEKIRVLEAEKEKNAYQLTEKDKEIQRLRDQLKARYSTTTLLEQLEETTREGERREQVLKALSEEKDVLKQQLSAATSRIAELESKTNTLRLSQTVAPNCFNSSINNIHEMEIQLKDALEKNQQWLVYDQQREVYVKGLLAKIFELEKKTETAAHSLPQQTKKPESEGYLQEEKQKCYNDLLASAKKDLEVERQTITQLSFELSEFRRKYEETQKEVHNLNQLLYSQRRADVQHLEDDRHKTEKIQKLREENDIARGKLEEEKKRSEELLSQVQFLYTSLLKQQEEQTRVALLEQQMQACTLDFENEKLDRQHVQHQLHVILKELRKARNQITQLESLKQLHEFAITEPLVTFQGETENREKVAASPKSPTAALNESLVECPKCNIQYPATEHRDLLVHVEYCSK
Chain of UniProt P46934 (P46934 840-873): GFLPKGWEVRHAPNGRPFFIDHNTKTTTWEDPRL

Kd (CEP55 (Homo sapiens) [1]): 1000 nM
Substance: ALIX GPPX3Y peptide (from UniProt Q8WUM4)

Kd (Nedd4 WW3): 20000 nM
Substance: ENaC β subunit PPXY peptide (from UniProt P51168)

Kd (CEP55 (Homo sapiens) [2]): 1000 nM
Substance: TSG101 GPPX3Y peptide (from UniProt Q99816)
